From PMC2922993

Molecular target: T1, BRAF-HDAC Complex 80 (BHC80)-PHD finger, Q96BD5
T1 chain: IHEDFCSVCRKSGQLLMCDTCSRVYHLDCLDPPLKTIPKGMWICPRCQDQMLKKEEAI
Assay: ITC

ARTKQTARKSTG (modifications not checked) [unmodified H3 peptide]
Kd: 19.6 µM
